From article doi:10.1101/2023.06.19.545627v1, “Pharmacokinetic profile of the synthetic mu-opioid receptor agonist [Lys7]Dermorphin-IRDye®800CW and its feasibility as a biomarker for opioid use disorder” (bioRxiv, 2023)

Tests used:
[1] = Plasma pharmacokinetics by direct carotid artery fluorescence imaging after intravenous injection; conditions: for Distribution rate, b / Elimination rate, d: biexponential fit; for Distribution rate, b / Elimination rate, d / Distribution (α) half-life / Elimination (β) half-life: value (95% CI); for Plasma half-life (time in which the concentration of dye is 50% of initial) / Distribution (α) half-life / Elimination (β) half-life: IV; for Distribution (α) half-life / Elimination (β) half-life: biexponential
[2] = test system: CHO-K1 cells expressing MOR; experiment: Wide field fluorescence microscopy of DRM-800 binding and internalization; assay type: cell-based, Chinese hamster
From the text: Cells were visualized using a Zeiss LSM 800 inverted microscope with a Generation III 750 nm laser light source (Lumencor, Inc., Beaverton, OR) and a Zeiss Plan-Apochromat 20×/0.8 M27 objective lens. The filters used for imaging DRM-800 were 740 nm for excitation, 770 nm dichroic and 780 nm longpass for emission (Filter Set 49037, Chroma Technology Corp., Bellows Falls, VT). Acquisition of micrographs was accomplished using a digital CMOS Camera (C114400-22CU, Hamamatsu Photonics K.K.) with a 2×2 pixel binning. Images were processed in ImageJ FIJI, windowed and leveled identically across samples, and then adjusted step-wise until cells are visible, with each image being shown for transparency.
Wide field fluorescence microscopy (Fig. 3) was used to study the binding and internalization of DRM-800 to stably expressed MORs in the membrane of transfected CHO-K1 cells.

[3] = molecular target: MOR (Mus musculus, UniProt P42866); experiment: Whole body biodistribution by cryo-macrotome fluorescence imaging, wildtype vs MOR knockout; conditions: 1 hour after IV injection
MOR, sequence (P42866 whole entry, looked up): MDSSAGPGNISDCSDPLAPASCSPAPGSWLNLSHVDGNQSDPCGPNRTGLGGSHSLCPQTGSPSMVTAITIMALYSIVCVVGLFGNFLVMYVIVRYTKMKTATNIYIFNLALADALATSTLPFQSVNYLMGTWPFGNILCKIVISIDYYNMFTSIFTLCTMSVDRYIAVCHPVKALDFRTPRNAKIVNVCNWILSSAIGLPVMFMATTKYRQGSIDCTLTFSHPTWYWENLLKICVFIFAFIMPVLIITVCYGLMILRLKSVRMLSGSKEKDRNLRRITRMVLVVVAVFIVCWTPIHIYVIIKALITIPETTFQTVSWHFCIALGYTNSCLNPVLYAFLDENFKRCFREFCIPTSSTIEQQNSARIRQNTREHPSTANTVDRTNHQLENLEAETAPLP

[4] = rate constants did not differ between groups (wildtype and MOR-knockout mice), 1 nmol IV coinjection with DRM-800
[5] = MOR-knockout mice, n = 4, 1 nmol IV tail vein coinjection with IRDye700DX
[6] = wildtype mice, n = 4, 1 nmol IV tail vein coinjection with IRDye700DX, imaged 1 hour

Molecule: IRDye®700DX [IRD700, reference compound]
- Distribution rate, b [1, 4]: 0.42 (0.36 - 0.47) min^−1
- Elimination rate, d [1, 4]: 0.054 (0.051 - 0.057) min^−1

Molecule: C[C@@H](NC(=O)[C@@H](N)Cc1ccc(O)cc1)C(=O)N[C@@H](Cc1ccccc1)C(=O)NCC(=O)N[C@@H](Cc1ccc(O)cc1)C(=O)N1CCC[C@H]1C(=O)N[C@@H](CCCCN)C(=O)N[C@@H](CSC1CC(=O)N(CCNC(=O)CCCCC[N+]2=C(/C=C/C3=C(Oc4ccc(S(=O)(=O)O)cc4)C(=C/C=C4/N(CCCCS(=O)(=O)O)c5ccc(S(=O)(=O)O)cc5C4(C)C)/CCC3)C(C)(C)c3cc(S(=O)(=O)[O-])ccc32)C1=O)C(N)=O (stereo partly drawn) [DRM-800, IRDye®800CW-labelled YdAFGYPKC-NH2]
- Binding and internalization seen by fluorescence microscopy ([2]; 2 nM and 25 nM, 35°C, 30 min of incubation, no sucrose): plasma membrane fluorescence as well as fluorescent puncta of high intensity in the perinuclear region of the cytoplasm were observable
- Binding and internalization seen by fluorescence microscopy with internalization inhibited ([2]; 4C with addition of sucrose (0.35 M)): fluorescence was distinctly observed at the plasma membrane and intracellular puncta was greatly reduced
- Fluorescence in small and large intestine, wildtype compared with knockout ([3]; cryo-macrotome ROI analysis): elevated levels of DRM-800 compared with knockout mice
- Ratio of average fluorescence wildtype vs knockout, dorsal root ganglion ([3]; cryo-macrotome ROI analysis): 1.8 ± 0.05
- Ratio of average fluorescence wildtype vs knockout, left spiral ganglion ([3]; cryo-macrotome ROI analysis): 2.2 ± 0.2
- Ratio of average fluorescence wildtype vs knockout, right spiral ganglion ([3]; cryo-macrotome ROI analysis): 2.9 ± 0.3
- Ratio of average fluorescence wildtype vs knockout, trigeminal ganglion ([3]; cryo-macrotome ROI analysis): 3.1 ± 0.2
- Fluorescence signal in brain ([3]; either group of mice (wildtype, knockout)): did not observe any appreciable signal
- Plasma half-life (time in which the concentration of dye is 50% of initial) ([1]; MOR knockout mice): 12.6 min
- Distribution (α) half-life ([1]; MOR knockout mice): 6.2 (4.9 - 8.6) min
- Elimination (β) half-life ([1]; MOR knockout mice): 45 (33–68) min
- Distribution rate, b [1, 5]: 0.11 (0.08-0.14) min^−1
- Elimination rate, d [1, 5]: 0.0155 (0.0102 - 0.0202) min^−1
- Plasma half-life following intravenous injection ([1]; mice (abstract summary over wildtype and knockout)): 8 to 12 min
- Plasma half-life (time in which the concentration of dye is 50% of initial) ([1]; wildtype mice): 7.95 min
- Distribution (α) half-life ([1]; wildtype mice): 3.3 (3.1-3.5) min
- Elimination (β) half-life ([1]; wildtype mice): 70.8 (67.2 - 74.8) min
- Distribution rate, b [1, 6]: 0.211 (0.197 - 0.224) min^-1
- Elimination rate, d [1, 6]: 0.0097 (0.0093 - 0.0103) min^-1
